The values that follow are results of earlier work, collected in PMC10764639.

As usually defined, the Kd is a measure of binding affinity in units of concentration.

The data set deals with TLR4 (Homo sapiens) (UniProt O00206).
UniProt O00206, sequence (O00206 24-839): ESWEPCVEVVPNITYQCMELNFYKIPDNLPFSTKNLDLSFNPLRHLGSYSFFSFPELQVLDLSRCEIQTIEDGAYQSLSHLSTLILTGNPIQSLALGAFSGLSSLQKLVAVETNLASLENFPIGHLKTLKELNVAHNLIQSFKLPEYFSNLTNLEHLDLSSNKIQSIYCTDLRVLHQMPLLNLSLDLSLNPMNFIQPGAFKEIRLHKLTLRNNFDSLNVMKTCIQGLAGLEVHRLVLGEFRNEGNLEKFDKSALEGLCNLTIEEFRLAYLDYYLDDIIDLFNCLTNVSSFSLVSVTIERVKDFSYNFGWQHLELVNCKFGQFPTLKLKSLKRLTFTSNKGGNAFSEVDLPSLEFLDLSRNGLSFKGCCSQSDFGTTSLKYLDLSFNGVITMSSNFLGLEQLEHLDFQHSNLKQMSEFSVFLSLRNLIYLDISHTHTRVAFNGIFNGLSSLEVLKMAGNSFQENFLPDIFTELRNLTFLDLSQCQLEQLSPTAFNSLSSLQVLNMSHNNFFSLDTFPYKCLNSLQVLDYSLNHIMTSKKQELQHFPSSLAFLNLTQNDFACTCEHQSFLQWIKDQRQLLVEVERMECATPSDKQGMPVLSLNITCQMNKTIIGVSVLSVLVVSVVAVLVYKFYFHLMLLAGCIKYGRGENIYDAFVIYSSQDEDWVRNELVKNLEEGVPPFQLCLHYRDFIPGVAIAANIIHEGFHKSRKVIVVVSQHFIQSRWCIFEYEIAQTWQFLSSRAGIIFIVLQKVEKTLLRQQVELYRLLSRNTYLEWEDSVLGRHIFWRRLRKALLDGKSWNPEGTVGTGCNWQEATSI

Take HMGB1 (from UniProt P09429): the Kd was 12 nM.
